Reference: patent publication US20200262928A1 (GREEN CROSS, published 2020)
Positions count from the first letter of the chain named.

B1: mouse/human chimeric MI323 IgG1 (antibody, V domains shown)
VH: EVQLQQSGPELVKPGTSVKISCKASGYSFTSYFIQWVKQRPGQGLEWIGWIFPGSGNTKYNEMFKGKATLAADTSSSTAYMQLSSLTSEDSAVYFCARSGGYQYYFDYWGQGTSVTVSS
VL: DIVMTQSHKFMSTSVGDRVSITCKASQDVSTAVAWYQQKPGQSPKLLIYSASYRYPGVPDRFTGSGSGTDFTFTISSVQAEDLALYYCQQHYSTPWTFGGGTKLEIKR
notes: Control antibody; also called mouse human chimeric MI323 IgG1 antibody; MI323 antibody
B2: HMI323VL-1/HMI323VH-3 IgG1 (antibody, V domains shown)
VH: EVQLVQSGAEVKKPGTSVKVSCKASGYSFTSYFIQWVRQAPGQGLEWIGWIFPGSGNTKYSQKFQGRVTITRDTSTSTAYMELSSLRSEDTAVYYCARSGGYQYYFDYWGQGTLVTVSS
VL: DIQMTQSPSSLSASVGDRVTITCRASQDVSTAVAWYQQKPGKAPKLLIYSASYRYPGVPSRFSGSGSGTDFTLTISSLQPEDFATYYCQQHYSTPWTFGGGTKLEIKR
notes: also called humanized MI323 IgG1
B3: HMI323VL-1/HMI323VH-2 (antibody, human IgG1, kappa, V domains shown)
VH: B2 VH with E1Q, T16S, Q35S, I48M, W50G, T58A, K59N, S61A, R72A, T74E
VL: B2 VL
notes: also called humanized MI323 IgG1 (VL-1/VH-2)
B4: HMI323VL-1/HMI323VH-1 (antibody, human IgG1, kappa, V domains shown)
VH: B2 VH with E1Q, T16A, I34M, Q35H, G44R, I48M, S55N, T76A
VL: B2 VL
notes: also called humanized MI323 IgG1 (VL-1/VH-1)

What was measured:
[1] = molecular target: human MSLN expressed on cancer cell surface (human) (UniProt Q13421); experiment: flow cytometry on H226 cells expressing MSLN, control antibody, PE-conjugated anti-human IgG detection
human MSLN expressed on cancer cell surface (human), sequence (Q13421 other isoform, or with tags, fused parts or gaps limits assumed): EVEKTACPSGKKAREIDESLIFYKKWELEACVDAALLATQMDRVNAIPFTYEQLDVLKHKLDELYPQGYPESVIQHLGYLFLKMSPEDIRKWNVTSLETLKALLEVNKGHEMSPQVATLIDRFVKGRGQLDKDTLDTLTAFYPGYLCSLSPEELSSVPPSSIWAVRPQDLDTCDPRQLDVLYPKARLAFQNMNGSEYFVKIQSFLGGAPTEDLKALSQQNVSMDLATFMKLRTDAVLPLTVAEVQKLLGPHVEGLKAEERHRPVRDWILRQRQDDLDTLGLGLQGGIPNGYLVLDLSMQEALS

[2] = molecular target: human MSLN expressed on cancer cell surface (human) (UniProt Q13421); experiment: flow cytometry on PL45 cells expressing MSLN, control antibody, PE-conjugated anti-human IgG detection
[3] = molecular target: human MSLN expressed on cancer cell surface (human) (UniProt Q13421); experiment: flow cytometry on AsPC1 cells expressing MSLN, control antibody, PE-conjugated anti-human IgG detection
[4] = molecular target: human MSLN expressed on cancer cell surface (human) (UniProt Q13421); experiment: flow cytometry on Capan2 cells expressing MSLN, control antibody, PE-conjugated anti-human IgG detection
recombinant human MSLN = molecular target: T1, recombinant human MSLN (human, UniProt Q13421 296-580, limits assumed); experiment: BLI (Octet), MSLN on anti-Penta His sensor, antibody 3.125-50 nM
T1 construct: It was fixed to an anti-Penta His (HIS1K) sensor, so a His tag is implied; also called recombinant MSLN; mesothelin
T1 sequence (Q13421 other isoform, or with tags, fused parts or gaps limits assumed): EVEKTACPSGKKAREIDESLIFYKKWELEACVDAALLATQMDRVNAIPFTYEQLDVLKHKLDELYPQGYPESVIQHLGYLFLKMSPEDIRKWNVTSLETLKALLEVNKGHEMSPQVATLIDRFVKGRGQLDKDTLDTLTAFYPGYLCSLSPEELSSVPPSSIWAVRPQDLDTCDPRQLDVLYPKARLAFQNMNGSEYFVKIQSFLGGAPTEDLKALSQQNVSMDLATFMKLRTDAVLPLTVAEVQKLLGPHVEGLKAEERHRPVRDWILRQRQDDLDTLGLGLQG
Protocol: Specifically, recombinant human MSLN was prepared at a concentration of 5 μg/ml in 1× kinetic buffer and used to treat a 96-well-plate at 200 μl/well. The MSLN after treatment was fixed to the anti-Penta His (HIS1K, Cat #18-5121, Fortebio) sensor.
Then, the 3 humanized anti-MSLN antibodies produced in accordance with Example 1 and the mouse human chimeric MI323 IgG1 clones were diluted to a concentration of 50, 25, 12.5, 6.25, or 3.125 nM in 1× kinetic buffer, and treatment therewith was performed at 200 μl/well. For the 1×kinetic buffer, one obtained by 10-fold dilution of 10×kinetic buffer (ForteBio, Cat #18-1092) with PBS was used.
The interaction between the MSLN fixed to the sensor and the antibody at several concentrations was analyzed to calculate antigen-antibody affinity, and the results are shown in Table 4 below.

| Molecule | MFI [1] | MFI [2] | MFI [3] | MFI [4] | Kd (recombinant human MSLN) | koff (recombinant human MSLN) | kon (recombinant human MSLN) |
| --- | --- | --- | --- | --- | --- | --- | --- |
| hIgG (antibody) | 120 | 96.5 | 85.9 | 169 |  |  |  |
| B1 |  |  |  |  | 0.0286 nM | 1.3e-05 s⁻¹ | 454000 M⁻¹ s⁻¹ |
| B2 |  |  |  |  | 0.0327 nM | 2.75e-05 s⁻¹ | 842000 M⁻¹ s⁻¹ |
| B3 |  |  |  |  | 0.273 nM | 0.000509 s⁻¹ | 1.86e+06 M⁻¹ s⁻¹ |
| B4 |  |  |  |  | 0.139 nM | 9.25e-05 s⁻¹ | 665000 M⁻¹ s⁻¹ |
